Results from patent US20260183373.

B1: angiotensin-converting enzyme (ACE) (protein)
chain: LDPGLQPGNFSADEAGAQLFAQSYNSSAEQVLFQSVAASWAHDTNITAENARRQEEAALLSQEFAEAWGQKAKELYEPIWQNFTDPQLRRIIGAVRTLGSANLPLAKRQQYNALLSNMSRIYSTAKVCLPNKTATCWSLDPDLTNILASSRSYAMLLFAWEGWHNAAGIPLKPLYEDFTALSNEAYKQDGFTDTGAYWRSWYNSPTFEDDLEHLYQQLEPLYLNLHAFVRRALHRRYGDRYINLRGPIPAHLLGDMWAQSWENIYDMVVPFPDKPNLDVTSTMLQQGWNATHMFRVAEEFFTSLELSPMPPEFWEGSMLEKPADGREVVCHASAWDFYNRKDFRIKQCTRVTMDQLSTVHHEMGHIQYYLQYKDLPVSLRRGANPGFHEAIGDVLALSVSTPEHLHKIGLLDRVTNDTESDINYLLKMALEKIAFLPFGYLVDQWRWGVFSGRTPPSRYNFDWWYLRTKYQGICPPVTRNETHFDAGAKFHVPNVTPYIRYFVSFVLQFQFHEALCKEAGYEGPLHQCDIYRSTKAGAKLRKVLQAGSSRPWQEVLKDMVGLDALDAQPLLKYFQPVTQWLQEQNQQNGEVLGWPEYQWHPPLPDNYPEGIDLVTDEAEASKFVEEYDRTSQVVWNEYAEANWNYNTNITTETSKILLQKNMQIANHTLKYGTQARKFDVNQLQNTTIKRIIKKVQDLERAALPAQELEEYNKILLDMETTYSVATVCHPNGSCLQLEPDLTNVMATSRKYEDLLWAWEGWRDKAGRAILQFYPKYVELINQAARLNGYVDAGDSWRSMYETPSLEQDLERLFQELQPLYLNLHAYVRRALHRHYGAQHINLEGPIPAHLLGNMWAQTWSNIYDLVVPFPSAPSMDTTEAMLKQGWTPRRMFKEADDFFTSLGLLPVPPEFWNKSMLEKPTDGREVVCHASAWDFYNGKDFRIKQCTTVNLEDLVVAHHEMGHIQYFMQYKDLPVALREGANPGFHEAIGDVLALSVSTPKHLHSLNLLSSEGGSDEHDINFLMKMALDKIAFIPFSYLVDQWRWRVFDGSITKENYNQEWWSLRLKYQGLCPPVPRTQGDFDPGAKFHIPSSVPYIRYFVSFIIQFQFHEALCQAAGHTGPLHKCDIYQSKEAGQRLATAMKLGFSRPWPEAMQLITGQPNMSASAMLSYFKPLLDWLRTENELHGEKLGWPQYNWTPNSARSEGPLPDSGRVSFLGLDLDAQQARVGQWL
B2: endothelin-converting enzyme 2 (ECE2) (protein)
chain: GVQYHRDPSHSTCLTEACIRVAGKILESLDRGVSPCEDFYQFSCGGWIRRNPLPDGRSRWNTFNSLWDQNQAILKHLLENTTFNSSSEAEQKTQRFYLSCLQVERIEELGAQPLRDLIEKIGGWNITGPWDQDNFMEVLKAVAGTYRATPFFTVYISADSKSSNSNVIQVDQSGLFLPSRDYYLNRTANEKVLTAYLDYMEELGMLLGGRPTSTREQMQQVLELEIQLANITVPQDQRRDEEKIYHKMSISELQALAPSMDWLEFLSFLLSPLELSDSEPVVVYGMDYLQQVSELINRTEPSILNNYLIWNLVQKTTSSLDRRFESAQEKLLETLYGTKKSCVPRWQTCISNTDDALGFALGSLFVKATFDRQSKEIAEGMISEIRTAFEEALGQLVWMDEKTRQAAKEKADAIYDMIGFPDFILEPKELDDVYDGYEISEDSFFQNMLNLYNFSAKVMADQLRKPPSRDQWSMTPQTVNAYYLPTKNEIVFPAGILQAPFYARNHPKALNFGGIGVVMGHELTHAFDDQGREYDKEGNLRPWWQNESLAAFRNHTACMEEQYNQYQVNGERLNGRQTLGENIADNGGLKAAYNAYKAWLRKHGEEQQLPAVGLTNHQLFFVGFAQVWCSVRTPESSHEGLVTDPHSPARFRVLGTLSNSRDFLRHFGCPVGSPMNPGQLCEVW

| Protein | Aβ cleavage (ELISA-based assay of intact Aβ) (Aβ(1-40), P05067) | Aβ cleavage (ELISA-based assay of intact Aβ) (Aβ(1-42), P05067) |
| --- | --- | --- |
| B1 | ECE2 and ACE were completely inactive on both Aβ isoforms | ECE2 and ACE were completely inactive on both Aβ isoforms |
| B2 | ECE2 and ACE were completely inactive on both Aβ isoforms | ECE2 and ACE were completely inactive on both Aβ isoforms |
